The results in this text go back to patent publication US20040039173A1 (SALK INSTITUTE FOR BIOLOGICAL STUDIES, published 2004).

No end group written: not given here.

For test [1], the target named is human CRF receptor, subtype A, variant 1 (hCRF-RA1), encoded by clone hctCRFR (human) (UniProt P34998). Briefly: binding to the receptor encoded by hctCRFR in COSM6 cell membranes (competitive radioreceptor assay of Example 3).
For test [2], the target named is T1, mouse CRF receptor, subtype B, variant 1 (mCRF-RB1) (mouse, UniProt Q60748 35-411).
T1 construct: Full-length cDNA (431 amino acids) in pcDNA1, transiently expressed in COSM6 cells; also called pCRF-RB1
Briefly: competitive displacement of 125I-(Nle21,Tyr32)-ovine CRF, membranes of COSM6 cells transfected with pCRF-RB1. On the procedure: (§1) The reaction was terminated by filtration through GF/C (Whatman) filters, prewetted with 1% BSA, 10 mM HEPES, pH 7.5. The filters were washed 4 times with 1 ml 0.1% BSA, 50 mM Tris, pH 7.5.
(§2) Using the methods described in Example 3, a radioreceptor assay was conducted. Approximately […] of pCRF-RB₁ plasmid DNA was transfected into COSM6 cells using the DEAE dextran method. […] In order to calculate a Kd, the displacement data were analyzed using the Ligand program of Munson and Rodbard (1980), Anal. Biochem., 107:220-239.
(In a radioligand displacement assay an active substance lowers the binding of a labelled ligand.)

The target in test [3] is T2, human CRF receptor, subtype A, variant 1 (hCRF-RA1), encoded by clone hctCRFR (human, UniProt P34998 24-415).
T2 construct: Transiently expressed in COSM6 cells; Clone hctCRFR (ATCC 75474) and clone CRF-R1 are both said to encode hCRF-RA1; also called CRF-R1; hctCRF receptor
T2 sequence: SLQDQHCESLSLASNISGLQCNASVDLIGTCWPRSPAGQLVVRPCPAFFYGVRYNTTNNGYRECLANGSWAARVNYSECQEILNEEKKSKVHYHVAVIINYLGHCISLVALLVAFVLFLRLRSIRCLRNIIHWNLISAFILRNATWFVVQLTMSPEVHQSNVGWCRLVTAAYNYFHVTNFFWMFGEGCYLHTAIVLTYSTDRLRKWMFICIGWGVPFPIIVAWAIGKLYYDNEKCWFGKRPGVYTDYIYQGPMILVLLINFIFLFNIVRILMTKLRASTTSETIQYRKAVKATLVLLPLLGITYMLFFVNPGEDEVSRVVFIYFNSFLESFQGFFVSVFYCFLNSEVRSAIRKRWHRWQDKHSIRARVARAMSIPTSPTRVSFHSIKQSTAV
Briefly: pharmacologic specificity of the receptor of SEQ ID NO:2.

In test [4] the target is T1, mouse CRF receptor, subtype B, variant …. The test is described as follows: competitive displacement of 125I-(Nle21,Tyr32)-ovine CRF, membranes of COSM6 cells transfected with pCRF-RB1, Ligand program, six experiments. On the procedure: as §1, §2

T1 sequence (Q60748 other isoform, or with tags, fused parts or gaps mutant limits assumed): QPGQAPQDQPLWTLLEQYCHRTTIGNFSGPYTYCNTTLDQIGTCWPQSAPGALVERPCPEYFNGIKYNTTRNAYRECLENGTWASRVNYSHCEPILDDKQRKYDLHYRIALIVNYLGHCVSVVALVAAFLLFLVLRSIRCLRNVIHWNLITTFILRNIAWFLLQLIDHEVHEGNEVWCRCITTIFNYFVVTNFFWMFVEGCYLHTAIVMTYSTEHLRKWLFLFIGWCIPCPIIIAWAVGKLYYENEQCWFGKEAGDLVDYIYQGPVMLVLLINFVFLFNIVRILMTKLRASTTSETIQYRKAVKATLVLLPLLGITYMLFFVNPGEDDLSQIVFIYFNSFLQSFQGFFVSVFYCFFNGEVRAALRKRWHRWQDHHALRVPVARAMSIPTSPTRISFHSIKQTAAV

“CRF antagonist a-helical (9-41) CRF (peptide)” returned a dissociation constant (Kd) in test [1] of 13 nM.

B1: hGRF(1-40)OH (peptide, UniProt P01286 32-71, looked up)
peptide: YADAIFTNSYRKVLGQLSARKLLQDIMSRQQGESNQERGA-OH
notes: range 1-40; also called growth hormone releasing factor
B1: the binding result in test [2] is given as “no binding”.

B2: vasoactive intestinal peptide (VIP) (peptide, UniProt P01282 125-152, looked up)
peptide: HSDAVFTDNYTRLRKQMAVKKYLNSILN
notes: also called vasoactive intestinal polypeptide
In the case of B2, in test [2], the binding result is on record as “no binding”.

In the case of QGPPISIDLSLELLRKMIEIEKQEKEKQQAANNRLLLDTI (ligand, UniProt P01144 1-40, looked up) [sauvagine], the binding result in test [3] is reported as “binds”.

B3: rat/human corticotropin-releasing factor (r/h CRF) (ligand, UniProt P06850 154-194, looked up)
peptide: SEEPPISLDLTFHLLREVLEMARAEQLAQQAHSNRKLMEII
notes: mature; The peptide in the assay is the mature 41-residue CRF; also called human/rat CRF; native r/h CRF
Regarding B3, the Kd in test [4] was ~1.3 nM.

In general, Kd refers to the free concentration of one partner at which half of the binding sites on the other are occupied at equilibrium, for simple one-to-one binding. A low value points to tighter binding.
